Results taken from the supplement of paper PMC12783771.
± gives the standard deviation of the averaged measurements.

B1: library; numbered along this chain (parent)
chain: MNIQIGELAKRTACPVVTIRFYEQEGLLPPPGRSRGNFRLYGEEHVERLQFIRHCRSLDMPLSDVRTLLSYRKRPDQDCGEVNMLLDEHIRQVESRIGALLELKHHLVELREACSGARPAQSCGILQGLSDCVCDTRGTTAHPSD

Tests used:
[1] = variants of: B1; assay: sfGFP reporter fluorescence (15 h) (µM FITC); higher = higher leak; conditions: library round: Round 0; ligand: none
In short: (§1)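 PCR-made linear PbrR templates (Echo-normalized to 5 nM) were expressed in BL21 Star (DE3) extract (PANOx-SP) with pPbrR-sfGFP reporter plasmid and 30 μg/mL GamS. Reactions were 1 μL, Echo-assembled, with 1 µM lead chloride, 30 µM zinc acetate or no metal, incubated 15 hr at 30 °C. Endpoint sfGFP fluorescence (485/528 nm, Synergy Neo2) was converted to µM FITC via standard curves in 50 mM sodium borate pH 8.5. Up to three biological replicates.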

[2] = variants of: B1; assay: sfGFP reporter fluorescence (15 h) (µM FITC); higher = stronger transcriptional activation; conditions: library round: Round 0
In short: as §1

Variant | sfGFP reporter fluorescence [1] | sfGFP reporter fluorescence ([2]; ligand: 1 µM Pb) | sfGFP reporter fluorescence ([2]; ligand: 30 µM Zn)
L110F | 0.05626 ± 0.00026 | 0.0599 ± 0.0018 | 0.0619 ± 0.0021
C114A | 0.05607 ± 0.00052 | 0.0559 ± 0.0013 | 0.0542
C114L | 0.0561 | 0.0583 ± 0.0015 | 0.0531 ± 0.0015
C114K | 0.0583 ± 0.0031 | 0.0586 ± 0.001 | 0.0563 ± 0.0029
C114I | 0.05717 ± 0.00052 | 0.0942 ± 0.0015 | 0.863 ± 0.012
C114Y | 0.0585 ± 0.0018 | 0.0586 | 0.0544 ± 0.0013
Q4A | 0.0537 ± 0.0044 | 0.0555 ± 0.0018 | 0.4821 ± 0.0029
L28V | 0.06175 ± 0.00026 | 0.0819 ± 0.0013 | 0.5124 ± 0.0026
L28Q | 0.0638 | 0.0619 ± 0.001 | 0.05901 ± 0.00052
L28I | 0.0588 ± 0.00078 | 0.0841 ± 0.0013 | 0.908 ± 0.066
L28W | 0.061 ± 0.0018 | 0.0821 ± 0.001 | 0.878 ± 0.019
L28T | 0.0647 ± 0.0013 | 0.0691 ± 0.0013 | 0.166 ± 0.031
L28P | 0.06102 ± 0.00026 | 0.06047 ± 0.00052 | 0.0619 ± 0.001
L28R | 0.0629 ± 0.0013 | 0.063 ± 0.0026 | 0.0588 ± 0.0029
L28K | 0.06304 ± 0.00052 | 0.0625 ± 0.0018 | 0.05809 ± 0.00026
I97C | 0.0601 ± 0.0015 | 0.0702 ± 0.0065 | 0.761 ± 0.036
I97Y | 0.0603 ± 0.0034 | 0.0825 ± 0.0026 | 0.721 ± 0.031
L86A | 0.07 ± 0.0015 | 0.0647 ± 0.0018 | 0.0782 ± 0.0018
Y41T | 0.0597 ± 0.0026 | 0.05974 ± 0.00052 | 0.0592 ± 0.0039
Y41W | 0.0586 | 0.0658 ± 0.0029 | 0.1977 ± 0.00078
L8A | 0.0575 ± 0.0021 | 0.0667 ± 0.0042 | 0.313 ± 0.038
T18A | 0.0612 ± 0.001 | 0.0612 ± 0.0026 | 0.188 ± 0.014

Variant | sfGFP reporter fluorescence [1] | sfGFP reporter fluorescence ([2]; ligand: 1 µM Pb) | sfGFP reporter fluorescence ([2]; ligand: 30 µM Zn)
L58E | 0.0619 ± 0.001 | 0.0625 ± 0.0013 | 0.064 ± 0.0018
L58N | 0.05644 ± 0.00052 | 0.05791 ± 0.00052 | 0.0548 ± 0.0023
L58T | 0.0588 ± 0.0018 | 0.05864 ± 0.00052 | 0.05644 ± 0.00052
L58F | 0.0592 ± 0.0018 | 0.0731 ± 0.0013 | 0.261 ± 0.027
L58A | 0.0601 ± 0.001 | 0.05681 ± 0.00052 | 0.0563 ± 0.0049
L58D | 0.0599 ± 0.0023 | 0.0623 | 0.0608 ± 0.0015
I90A | 0.06249 ± 0.00026 | 0.0792 ± 0.0031 | 0.521 ± 0.0044
I90F | 0.0566 ± 0.0054 | 0.063 ± 0.0026 | 0.339 ± 0.033
I90Q | 0.05974 ± 0.00052 | 0.0737 ± 0.0042 | 0.637 ± 0.052
I90K | 0.0621 ± 0.0023 | 0.099 ± 0.0047 | 0.85 ± 0.061
I90E | 0.0579 ± 0.0042 | 0.05791 ± 0.00052 | 0.0977 ± 0.0018
C123P | 0.0559 ± 0.00078 | 0.05772 ± 0.00026 | 0.0526 ± 0.00078
C123A | 0.0575 ± 0.001 | 0.0553 | 0.0533 ± 0.00078
V108K | 0.0607 ± 0.00078 | 0.0803 ± 0.0026 | 1.13 ± 0.093
V108T | 0.0588 ± 0.00078 | 0.0724 ± 0.00078 | 0.795 ± 0.063
V108Q | 0.0566 ± 0.00078 | 0.068 ± 0.0018 | 0.672 ± 0.06
V108W | 0.0583 ± 0.001 | 0.072 ± 0.0029 | 0.554 ± 0.0067
N83G | 0.0559 ± 0.00078 | 0.0748 ± 0.001 | 0.692 ± 0.13
S34A | 0.0645 ± 0.001 | 0.0654 ± 0.00078 | 0.328 ± 0.018
M60L L107C G128M | 4.479 ± 0.028 | 4.98 ± 0.62 | 5.22 ± 0.29
L85I | 0.0577 ± 0.00078 | 0.06853 ± 0.00052 | 0.6194 ± 0.0057
M60L P61N D64K G128M | 1.99 ± 0.056 | 3.91 ± 0.25 | 4.405 ± 0.006

Variant | sfGFP reporter fluorescence [1] | sfGFP reporter fluorescence ([2]; ligand: 1 µM Pb) | sfGFP reporter fluorescence ([2]; ligand: 30 µM Zn)
K104V L107C G128I | 0.483 ± 0.024 | 2.5 ± 0.27 | 3.37 ± 0.23
C55F | 0.0634 ± 0.001 | 0.0674 ± 0.001 | 0.0876
C55H | 0.0585 ± 0.00078 | 0.06139 ± 0.00026 | 0.0574 ± 0.00078
C55T | 0.0577 ± 0.00078 | 0.0594 ± 0.0042 | 0.129 ± 0.0018
C55P | 0.0596 ± 0.00078 | 0.0597 | 0.05846 ± 0.00026
C55E | 0.061 ± 0.0013 | 0.06029 ± 0.00026 | 0.0607 ± 0.0013
C55A | 0.0647 ± 0.0013 | 0.126 ± 0.013 | 1.28 ± 0.066
C55Y | 0.0601 ± 0.0021 | 0.0623 ± 0.001 | 0.06011 ± 0.00052
R33D | 0.0651 ± 0.00078 | 0.06377 ± 0.00052 | 0.0652
R33F | 0.0599 ± 0.0018 | 0.061 ± 0.0029 | 0.0665 ± 0.0044
C79H | 0.05919 ± 0.00026 | 0.0596 ± 0.00078 | 0.0559 ± 0.00078
C79T | 0.0575 ± 0.0031 | 0.0592 ± 0.0018 | 0.0555 ± 0.0018
C79N | 0.05919 ± 0.00026 | 0.0566 ± 0.0013 | 0.0557
C79Y | 0.0597 ± 0.0031 | 0.0585 ± 0.00078 | 0.0564 ± 0.001
C79A | 0.05827 ± 0.00052 | 0.055 ± 0.0021 | 0.0585 ± 0.00078
E94D | 0.0579 ± 0.0052 | 0.0623 | 0.32 ± 0.013
E94K | 0.0612 ± 0.0026 | 0.0793 ± 0.0034 | 0.824 ± 0.043
L68V | 0.0603 ± 0.0018 | 0.0632 ± 0.0013 | 0.384 ± 0.035
L68Y | 0.0634 | 0.0773 ± 0.0031 | 0.908 ± 0.05
L68I | 0.0599 ± 0.0013 | 0.059 ± 0.0021 | 0.214 ± 0.047
I125A | 0.0572 ± 0.0042 | 0.0553 ± 0.0021 | 0.0585 ± 0.0023
I125E | 0.0597 ± 0.0026 | 0.0581 ± 0.00078 | 0.0557 ± 0.0031

Variant | sfGFP reporter fluorescence [1] | sfGFP reporter fluorescence ([2]; ligand: 1 µM Pb) | sfGFP reporter fluorescence ([2]; ligand: 30 µM Zn)
F21Y | 0.06102 ± 0.00026 | 0.0755 ± 0.0015 | 0.819 ± 0.015
F21K | 0.0607 ± 0.0013 | 0.06157 ± 0.00052 | 0.0641
F21D | 0.0616 ± 0.0015 | 0.0614 ± 0.0013 | 0.0599 ± 0.00078
H45A | 0.0599 ± 0.0018 | 0.07275 ± 0.00026 | 0.687 ± 0.088
E109H | 0.0581 ± 0.0013 | 0.0867 ± 0.0075 | 0.456 ± 0.012
P15H | 0.0667 ± 0.001 | 0.092 ± 0.0052 | 0.706 ± 0.044
L126Y | 0.0596 ± 0.0018 | 0.05937 ± 0.00052 | 0.0561 ± 0.0021
I5A | 0.0515 ± 0.0039 | 0.05186 ± 0.00026 | 0.0817 ± 0.0036
V82N | 0.0597 ± 0.001 | 0.0597 ± 0.0015 | 0.05644 ± 0.00052
M60L D64K K104V G128M | 3.37 ± 0.19 | 4.36 ± 0.31 | 3.8 ± 0.24
G138A | 0.0597 ± 0.001 | 0.0724 ± 0.0018 | 0.697 ± 0.17
Q121A | 0.0645 ± 0.001 | 0.0944 ± 0.0023 | 1.16 ± 0.19
M60L D64K | 0.916 ± 0.074 | 1.99 ± 0.24 | 4.629 ± 0.03
E43A | 0.06304 ± 0.00052 | 0.0969 ± 0.0044 | 1.66 ± 0.077
E43K | 0.0594 | 0.109 ± 0.02 | 2.36 ± 0.049
E43P | 0.05736 ± 0.00026 | 0.0674 ± 0.0093 | 0.7191 ± 0.0047
R20C | 0.063 ± 0.0015 | 0.0618 ± 0.00078 | 0.0634 ± 0.001
R20K | 0.0623 ± 0.001 | 0.0625 ± 0.0018 | 0.064 ± 0.00078
P61N K104V G128M | 0.395 ± 0.015 | 1.034 ± 0.006 | 3.13 ± 0.069
S63A | 0.0607 ± 0.00078 | 0.0733 ± 0.0026 | 0.725 ± 0.037
M60L L107C | 1.01 ± 0.029 | 1.43 ± 0.057 | 3.93 ± 0.055
M60L P61N D64K K104V G128I | 0.345 ± 0.029 | 0.915 ± 0.075 | 2.39 ± 0.063
